Results on 14 sequences are retold here after the Immune Epitope Database (IEDB).

The target in test [1] is HLA-B*18:01. Nature of the test: IEDB peptide-MHC binding, purified MHC/competitive/radioactivity; filed as Kd, often an IC50 or EC50 that approximates it; ≥ and ≤ were set here for values at or beyond the usual limits of such assays.
For test [2], the target named is HLA-B*40:01. The description is as above.
Test [3] has as its target HLA-B*40:02. Described as above.
Test [4] deals with HLA-B*44:02. Described as above.
Test [5] has as its target HLA-B*44:03. Described as above.
For test [6], the target named is HLA-B*45:01. Described as above.
In test [7] the target is HLA-B*39:01. Nature of the test: IEDB peptide-MHC binding, purified MHC/competitive/fluorescence; filed as Kd, often an IC50 or EC50 that approximates it; ≥ and ≤ were set here for values at or beyond the usual limits of such assays. As to conditions: source organism: Bacillus anthracis str. A0488.
The target in test [8] is HLA-B*08:01. Nature of the test: IEDB peptide-MHC binding, purified MHC/direct/fluorescence; filed as Kd, often an IC50 or EC50 that approximates it; ≥ and ≤ were set here for values at or beyond the usual limits of such assays. As to conditions: source organism: Campylobacter jejuni subsp. jejuni 81-176.
The mark [9] stands for this setting: source organism: Mammarenavirus machupoense.
Where [10] appears, read: source organism: Mammarenavirus juninense.
[11] abbreviates: source organism: SARS coronavirus Tor2.
Where [12] appears, read: source organism: Mammarenavirus whitewaterense.
[13] abbreviates: source organism: Mammarenavirus choriomeningitidis.

With KEINFLSQT, the Kd is ≥ 28.3 µM in test [1] (setting [9]); ≥ 63.7 µM in test [2] (setting [9]); 0.0151 µM in test [3] (setting [9]); 16.1 µM in test [4] (setting [9]); 17.3 µM in test [5] (setting [9]); 0.643 µM in test [6] (setting [9]).
Consider LDLVLLNLL, for which the Kd in test [1] (setting [10]) was ≥ 43.6 µM; in test [2] (setting [10]), 18.7 µM; in test [3] (setting [10]) it was 0.0485 µM; in test [4] (setting [10]), ≥ 77.9 µM; in test [5] (setting [10]), ≥ 45.4 µM; in test [6] (setting [10]), 12.5 µM.
Turning to NELTLIDFYL, the equilibrium dissociation constant (Kd) in test [1] (setting [11]) turned out to be 0.604 µM; in test [2] (setting [11]), 0.231 µM; in test [3] (setting [11]), 0.126 µM; in test [4] (setting [11]), 0.157 µM; in test [5] (setting [11]) it was 0.051 µM; in test [6] (setting [11]), 1.08 µM.
Consider QELGHEDLMA, for which the Kd in test [1] (setting [11]) is ≥ 70.5 µM; in test [2] (setting [11]), ≥ 26.9 µM; in test [3] (setting [11]), 2.58 µM; in test [4] (setting [11]) it was 4.15 µM; in test [5] (setting [11]), 2.35 µM; in test [6] (setting [11]) it was 0.671 µM.
Regarding QELGKYEQYI, the dissociation constant (Kd) in test [1] (setting [11]) is ≥ 70.5 µM; in test [2] (setting [11]), 13 µM; in test [3] (setting [11]), 0.507 µM; in test [4] (setting [11]) it was 0.207 µM; in test [5] (setting [11]), 0.187 µM; in test [6] (setting [11]), ≥ 20.6 µM.
Turning to REIGFIVPGL, the dissociation constant (Kd) in test [1] (setting [11]) was determined as 8.67 µM; in test [2] (setting [11]), 0.000132 µM; in test [3] (setting [11]), 0.000408 µM; in test [4] (setting [11]) it was 0.0143 µM; in test [5] (setting [11]) it was 0.00429 µM; in test [6] (setting [11]), 0.103 µM.
On to REPETTVVL, for which the Kd in test [1] (setting [12]) was 7.9 µM; in test [2] (setting [12]) it was 0.112 µM; in test [3] (setting [12]) it was 0.0927 µM; in test [4] (setting [12]) it was 18.6 µM; in test [5] (setting [12]), ≥ 44.3 µM; in test [6] (setting [12]), ≥ 74.8 µM.
For SAFFGMSRIG, the Kd was ≥ 70.5 µM in test [1] (setting [11]); ≥ 44.9 µM in test [2] (setting [11]); ≥ 70.8 µM in test [3] (setting [11]); 18.4 µM in test [4] (setting [11]); 8.77 µM in test [5] (setting [11]); ≥ 26.4 µM in test [6] (setting [11]).
For the sequence SDAALHNMI, the dissociation constant Kd in test [1] (setting [13]) was ≥ 77.5 µM; in test [2] (setting [13]), ≥ 35.8 µM; in test [3] (setting [13]), 1.93 µM; in test [4] (setting [13]) it was 7.07 µM; in test [5] (setting [13]), ≥ 31.7 µM; in test [6] (setting [13]) it was 2.12 µM.
Consider SDSVCACGL, for which the equilibrium dissociation constant (Kd) was ≥ 77.5 µM in test [1] (setting [12]); ≥ 44 µM in test [2] (setting [12]); 3.88 µM in test [3] (setting [12]); 3.09 µM in test [4] (setting [12]); 2.83 µM in test [5] (setting [12]); 10.6 µM in test [6] (setting [12]).
As to SEEVVENPTI, the dissociation constant (Kd) in test [1] (setting [11]) was ≥ 48.7 µM; in test [2] (setting [11]) it was 1.05 µM; in test [3] (setting [11]) it was 0.402 µM; in test [4] (setting [11]), 0.471 µM; in test [5] (setting [11]) it was 1.04 µM; in test [6] (setting [11]), 0.277 µM.
Take VDYGVRFFFY: the equilibrium dissociation constant (Kd) is ≥ 38.1 µM in test [1] (setting [11]); 16.8 µM in test [2] (setting [11]); ≥ 30.4 µM in test [3] (setting [11]); 0.823 µM in test [4] (setting [11]); 0.789 µM in test [5] (setting [11]); 0.451 µM in test [6] (setting [11]).
In test [7], YHHTAINVL displayed a Kd of 0.0063 µM.
With YLKPKIWRF, the Kd in test [8] amounted to 0.008 µM.
